From US20200207830A1, “TREM2 MUTANTS RESISTANT TO SHEDDASE CLEAVAGE” (NOVARTIS AG, priority 2017, published 2020) come the findings set out here.

For data set [1], the system named is BWZ-lacZ-mDAP12 cells. Nature of the data set: Reporter gene assay in BWZ cells. In kind it is cell-based. The settings on record: stably expressed with mDAP12, activating anti-TREM2 mAb vs isotype control, 16 h, compared with BWZ-TREM2-WT cells. How it is done:
BWZ thymoma reporter cells, which express lacZ under control of the promoter for nuclear factor of activated T cells (NFAT, Hsieh et al, Journal of Neurochemistry 109, 1144-1156, 2009) were transfected to co-express mDAP12 and WT hTREM2 or T2double TREM2. Cells were seeded in RPMI without phenol red supplemented with 2% FBS and 1% non-essential amino acids on high binding microtiter plates (Greiner) pre-coated with rat anti-mouse/human TREM2 mAb (R&D, MAB17291) or isotype control. Cell culture was continued for 16 h. Reporter gene activity was assessed with the Beta-glo assay system (Promega) according to the manufacturer's recommendations using an Envision 2104 multilabel reader (Perkin Elmer).
Next it was tested whether the T2-double-TREM2 construct retained functionality. To this end this mutant was stably transfected into BWZ cells that already expressed mouse DAP12 and a beta-Gal reporter driven by NFAT (Hsieh, Journal of Neurochemistry 109, 1144-1156, 2009). mDAP12 expressed without TREM2 in this cell lines represents background reporter gene activity (RGA) in this system. […] Thus, the T2-double-TREM2 construct retained TREM2 functions.
For orientation: Reporter assays use an easily measured gene product as a stand-in for the process of interest.

Data set [2] addresses T1, TREM2 stalk region derived synthetic peptide, Peptide 4 (H-SI cleavage site replaced with IPP).
T1 chain: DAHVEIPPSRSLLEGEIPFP

Data set [3] concerns the target T2, TREM2 stalk region derived synthetic peptide, Peptide 5 (H-SI cleavage site replaced with IPD).
T2 chain: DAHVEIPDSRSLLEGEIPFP

Data set [4] has as its target T3, TREM2 stalk region derived synthetic peptide, Peptide 3.
T3 chain: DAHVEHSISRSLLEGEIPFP

The target in data set [5] is T4, TREM2 stalk region derived synthetic peptide, Peptide 6 (H-SI cleavage site replaced with IDP).
T4 chain: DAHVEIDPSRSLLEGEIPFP

B1: T2-double: human TREM2 mutant combining T2-YGG and T2-WFR mutations; SEQ ID NO: 48 (protein)
chain: MEPLRLLILLFVTELSGAHNTTVFQGVAGQSLQVSCPYDSMKHWGRRKAWCRQLGEKGPCQRVVSTHNLWLLSFLRRWNGSTAITDDTLGGTLTITLRNLQPHDAGLYQCQSLHGSEADTLRKVLVEVLADPLDHRDAGDLWFPGESESFEDAHVYGGWGGWGPEGEIWFRWTSILLLLACIFLIKILAASALWAAAWHGQKPGTHPPSELDCGHDPGYQLQTLPGLRDT
Consider B1, for which the “Reporter gene activity (RGA) after TREM2 activation” value in data set [1] is reported as “comparable activity”.

B2: recombinant ADAM10 (protein)
chain: TTSAEKNTCQLYIQTDHLFFKYYGTREAVIAQISSHVKAIDTIYQTTDFSGIRNISFMVKRIRINTTADEKDPTNPFRFPNIGVEKFLELNSEQNHDDYCLAYVFTDRDFDDGVLGLAWVGAPSGSSGGICEKSKLYSDGKKKSLNTGIITVQNYGSHVPPKVSHITFAHEVGHNFGSPHDSGTECTPGESKNLGQKENGNYIMYARATSGDKLNNNKFSLCSIRNISQVLEKKRNNCFVESGQPICGNGMVEQGEECDCGYSDQCKDECCFDANQPEGRKCKLKPGKQCSPSQGPCCTAQCAFKSKSEKCRDDSDCAREGICNGFTALCPASDPKPNFTDCNRHTQVCINGQCAGSICEKYGLEECTCASSDGKDDKELCHVCCMKKMDPSTCASTGSVQWSRHFSGRTITLQPGSPCNDFRGYCDVFMRCRLVDADGPLARLKKAIFSPELYENIAE
As for B2, the “in vitro cleavage of peptide by ADAM10” value in data set [2] is “Peptide 4, with its IPP replacement for the H-SI cleavage site, appeared to be cleavage resistant in vitro”; in data set [3] it was “Peptides 5 and 6 were slowly cleaved by ADAM10 (data not shown)”; in data set [5], “Peptides 5 and 6 were slowly cleaved by ADAM10 (data not shown)”. In addition, in data set [4], the “in vitro cleavage of peptide by ADAM10, HPLC” value was “The same analysis was carried out with ADAM10, and a very similar cleavage pattern was obtained (data not shown)”.
